Assay results: patent USRE46585 (LABORATOIRE FRANCAIS DU FRACTIONNEMENT ET DES …, dated 2017)
Where two headings read alike, the source gives them in different places. Each block holds one binder with its values, some of them ahead of it.

Experiments:
FcRn-p3 fusion protein [1] = target: T1, FcRn-p3 fusion protein (human, UniProt P55899 24-297; P61769 21-119); assay: ELISA pH6, soluble Fc on coated FcRn-p3
T1 construct: baculovirus expressed; coated on ELISA wells; not shown: amino terminal part of bacteriophage p3 protein and CVDE protein

FcRn-p3 fusion protein [2] = target: T1, FcRn-p3 fusion protein; assay: phage ELISA pH6
FcRn-p3 fusion protein [3] = target: T1, FcRn-p3 fusion protein; assay: phage ELISA pH6 (est.)
FcRn-p3 fusion protein [4] = target: T1, FcRn-p3 fusion protein; assay: phage ELISA pH6 (est.); remark: listed apart in the source
FcRn-p3 fusion protein [5] = target: T1, FcRn-p3 fusion protein; assay: phage ELISA pH6; remark: listed apart in the source
FcRn-p3 fusion protein [6] = target: T1, FcRn-p3 fusion protein; assay: phage ELISA pH6 (est.); remark: listed apart in the source
[7] = target: T2, recombinant soluble human FcRn (human, UniProt P55899 24-297; P61769 21-119); assay: SPR pH6, immobilized FcRn, steady state
T2 construct: amine-coupled to the SPR chip

FcRn-p3 fusion protein [8] = target: T1, FcRn-p3 fusion protein; assay: ELISA pH6, soluble Fc on coated FcRn-p3; remark: listed apart in the source
[9] = target: T2, recombinant soluble human FcRn; assay: SPR pH6, immobilized FcRn, steady state; remark: listed apart in the source
FcRn-p3 fusion protein [10] = target: T1, FcRn-p3 fusion protein; assay: phage ELISA pH6; remark: listed apart in the source
FcRn-p3 fusion protein [11] = target: T1, FcRn-p3 fusion protein; assay: phage ELISA pH6; remark: listed apart in the source

B1: C6A_66 (soluble recombinant Fc polypeptide) (other)
chain: CPPCPAPELLGGPSVFLFPPKPKDTLMISRTPEVTCVVVDVSHEDPEVKFNWYVDGVEVHNAKTKPREQYNSTYRVVSVLPVLHQDWLNGKEYKCKVSNKALPAPIEKTISKAKGQPREPQVYTLPPSRDELTKNQVSLTCLVKGFYPSDIAVEWESNGQPENNYKTTPPVLDSDGSFFLYSKLTVDKSRWQQGNVFSCSVMHEALHYHYTQKSLSLSPGK
notes: EU numbering; E. coli periplasmic expression; E294del is a deletion; not shown: C-terminal 6xHis tag and V5 tag
EC50 (FcRn-p3 fusion protein [1]): 0.0049 µM

B3: T5A_58 (soluble recombinant Fc polypeptide) (other)
chain: CPPCPAPELLGGPSVLLFPPKPKDTLMISRTPEVTCVVEDVSHEDPEVKFNWYVDGVEVHNAKTKPREEQYNSTYRVVSVLPVLHQDWLNGKEYKCKVSNKALPAPIEKTISKAKGQPREPQVYTLPPSRDELTKNQVSLTCLVKGFYPSDIVVEWESNGQPENNYKTTPPVLDSDGSFFLYSKLTVDKSRWQQGNVFSCSVMHEALRNHYTQKSLSLSPGK
notes: EU numbering; E. coli periplasmic expression; not shown: C-terminal 6xHis tag and V5 tag
Kd [7]: 0.0154 µM

B5: T5A_81 (soluble recombinant Fc polypeptide) (other)
chain: CPPCPAPELLGGPSVFLFPPKPKDTLMISRTPEVTCVVEDVSHEDPEVKFNWYVDGVEVHNAKTKPREEQYNSTYRVVSVLTVLHQDWLNGKEYKCKVSNKALPAPIEKTISKAKGQPREPQVYTLPPSRDELTKNQVSLTCLVKGFYPSDIVVEWESNGQPENNYKTTPPVLDSDGSFFLYSKLTVDKSKWQQGNVFSCSVMHEALHNHYTQKSLSLSPGK
notes: as for B3
Kd [7]: 0.0227 µM
SPR Ratio/Fc-WT (Fc-WT Kd / variant Kd) [7]: 1.3 fold
EC50 (FcRn-p3 fusion protein [1]): 0.145 µM
ELISA ratio/Fc-WT (Fc-WT EC50 / variant EC50) (FcRn-p3 fusion protein [1]): 3 fold

B7: S3A_07 (soluble recombinant Fc polypeptide) (other)
chain: CPPCPAPELLGGPSVFLFPPKPKDTLMISRTPEVTCVVEDVSHEDPEVKFNWYVDGVEVHNAKTKPREEQYNSTYRVVSVLTVLHQDWLNGKEYKCKVSNKALPAPIEKTISKAKGQPREPQVYTLPPSRDELTKNQVSLTCLVKGFYPSDIVVEWGSNGQPENNYKTTPPVLDSDGSFFLYSKLTVDKSRWQQGNVFSCSVMHEALHNHYTQKSLSLSPGK
notes: as for B3
Fc-rec-ELISA Ratio/WT (FcRn-p3 fusion protein [8]): 25.3 fold
SPR Ratio/Fc-WT (Fc-WT Kd / variant Kd) [9]: 5.2 fold

B8: T5A_78 (soluble recombinant Fc polypeptide) (other)
chain: CPPCPAPELLGGPSVFLFPPKPKDTLMISRTPEVTCVVEDVSHEDPEVKFNWYVDGVEVHNAKTKPREEQYNSTYRVVSVLTVLHQDWLNGKEYKCKVSNKALPAPIEKTISKAKGQPREPQVYTLPPSRDELTKNQVSLTCLVKGFYPSDIAVEWESNGRPENNYKTTPLVLDSDGSFFLYSKLTVDKSRWQQGNVFSCSVMHEALHSHYTQRSLSLSPGK
notes: as for B3
Kd [7]: 0.0124 µM

B10: S3A_07 (other)
chain: CPPCPAPELLGGPSVFLFPPKPKDTLMISRTPEVTCVVEDVSHEDPEVKFNWYVDGVEVHNAKTKPREEQYNSTYRVVSVLTVLHQDWLNGKEYKCKVSNKALPAPIEKTISKAKGQPREPQVYTLPPSRDELTKNQVSLTCLVKGFYPSDIVVEWGSNGQPENNYKTTPPVLDSDGSFFLYSKLTVDKSRWQQGNVFSCSVMHEALHNHYTQKSLSLSPGK
notes: EU numbering
phage-ELISA Ratio/Fc-WT (FcRn-p3 fusion protein [10]): 3.5 fold
Ratio/Fc-WT (FcRn-p3 fusion protein [11]): 3.5 fold

B11: T5A_81 (other)
chain: CPPCPAPELLGGPSVFLFPPKPKDTLMISRTPEVTCVVEDVSHEDPEVKFNWYVDGVEVHNAKTKPREEQYNSTYRVVSVLTVLHQDWLNGKEYKCKVSNKALPAPIEKTISKAKGQPREPQVYTLPPSRDELTKNQVSLTCLVKGFYPSDIVVEWESNGQPENNYKTTPPVLDSDGSFFLYSKLTVDKSKWQQGNVFSCSVMHEALHNHYTQKSLSLSPGK
notes: EU numbering
Ratio/Fc-H (FcRn-p3 fusion protein [2]): 4.6 fold
phage-ELISA ratio/WT (FcRn-p3 fusion protein [3]): 14.9 fold
Ratio/FWT (FcRn-p3 fusion protein [4]): 14.9 fold
Ratio/Fc-H (FcRn-p3 fusion protein [5]): 4.6 fold
Ratio/Fc-WT (FcRn-p3 fusion protein [6]): 14.9 fold

B12: T5A_94 (soluble recombinant Fc polypeptide) (other)
chain: CPPCPAPELLGGPSVFLFPPKPKDTLMISRTPEVTCVVEDVSHEDPEVKFNWYVDGVEVHNAKTKPREEQYNSTYRVVSVLTVLHQDWLNGKEYKCKVSNKALPAPIEKTISKAKGQPREPQVYTLPPSRDELTKNQVSLTCLVKGFYPSDITVEWESNGQPENNYKTTPLVLDSDGSFFLYSKLTVDKSRWQQGNVFSCSVMHEALHNHYTQKSLSLSPGK
notes: as for B3
Kd [7]: 0.0137 µM
EC50 (FcRn-p3 fusion protein [1]): 0.166 µM

The remaining lines, values ahead:

Ratio/Fc-H (FcRn-p3 fusion protein [2]): 8.9 fold
phage-ELISA ratio/WT (FcRn-p3 fusion protein [3]): 28.4 fold
Ratio/FWT (FcRn-p3 fusion protein [4]): 28.4 fold
Ratio/Fc-H (FcRn-p3 fusion protein [5]): 8.9 fold
Ratio/Fc-WT (FcRn-p3 fusion protein [6]): 28.4 fold
B2: C6A_69 (other)
chain: CPPCPAPELLGGPSVFLFPPKPKDTLMISRTPEVTCVVVDVSHEDPEVKFNWYVDGVEVHNAKTKPREEQYNSTYRVVSVLAVLHQDWLDGKEYKCKVSNKALPVPIEKTISKAKGQPREPQVYTLPPSRDELTKNQVSLTCLVKGFYPSDIAVEWVSNGQPETNYKTTPPVLDSDGSFFLYSKLTVDKSRWQQGNVFSCSVMHEALHYHYTQKSLSLSPGK
notes: EU numbering

Ratio/Fc-H (FcRn-p3 fusion protein [2]): 8 fold
phage-ELISA ratio/WT (FcRn-p3 fusion protein [3]): 25.7 fold
Ratio/FWT (FcRn-p3 fusion protein [4]): 25.7 fold
Ratio/Fc-H (FcRn-p3 fusion protein [5]): 8 fold
Ratio/Fc-WT (FcRn-p3 fusion protein [6]): 25.7 fold
B4: C6A_72 (other)
chain: CPPCPAPELLGGPSVFLFPPKPKDALMISRTPEVTCVVVDVSHEDPEVKFNWYVDGVEVHNAKTKPREEQYNSTYRVVSVLTVLHQDWLNGKEYKCKVSNKALPAPIEKTISKAKGQPREPQVYTLPPSRDELTKNQVSLTCLVKGFYPSDIAVEWESNGQPEKNYKTTPPVLDSDGSFFLYSKLTVDKSRWQQGNVFSCSVMHEALHYHYTQKSLSLSPGK
notes: EU numbering

Kd [7]: 0.0072 µM
SPR Ratio/Fc-WT (Fc-WT Kd / variant Kd) [7]: 4.2 fold
EC50 (FcRn-p3 fusion protein [1]): 0.0037 µM
ELISA ratio/Fc-WT (Fc-WT EC50 / variant EC50) (FcRn-p3 fusion protein [1]): 124 fold
B6: C6A_69 (soluble recombinant Fc polypeptide) (other)
chain: CPPCPAPELLGGPSVFLFPPKPKDTLMISRTPEVTCVVVDVSHEDPEVKFNWYVDGVEVHNAKTKPREEQYNSTYRVVSVLAVLHQDWLDGKEYKCKVSNKALPVPIEKTISKAKGQPREPQVYTLPPSRDELTKNQVSLTCLVKGFYPSDIAVEWVSNGQPETNYKTTPPVLDSDGSFFLYSKLTVDKSRWQQGNVFSCSVMHEALHYHYTQKSLSLSPGK
notes: as for B3

Kd [7]: 0.0059 µM
EC50 (FcRn-p3 fusion protein [1]): 0.0073 µM
B9: C6A_74 (soluble recombinant Fc polypeptide) (other)
chain: CPPCPAPELLGGPSVFLFPPKPKDTLMISRTPEITCVVVDVSHEDPEVKFNWYVDGVEVHNAKTKPREEQYNSTYRVVSVLTVLHQDWLDGKEYKCKVSNKALPAPIEKTISKAKGQPREPQVYTLPPSRDELTKNQVSLTCLVKGFYPSDIAVEWESNGQPENNYKTTPPVLDSDGSFFLYSKLTVDKSRWQQGNVFSCSVMHEALHYHYTQKSLSLSPGK
notes: as for B3

Kd [7]: 0.0124 µM
SPR Ratio/Fc-WT (Fc-WT Kd / variant Kd) [7]: 2.4 fold
EC50 (FcRn-p3 fusion protein [1]): 0.0078 µM
ELISA ratio/Fc-WT (Fc-WT EC50 / variant EC50) (FcRn-p3 fusion protein [1]): 59 fold
B13: C6A_72 (soluble recombinant Fc polypeptide) (other)
chain: CPPCPAPELLGGPSVFLFPPKPKDALMISRTPEVTCVVVDVSHEDPEVKFNWYVDGVEVHNAKTKPREEQYNSTYRVVSVLTVLHQDWLNGKEYKCKVSNKALPAPIEKTISKAKGQPREPQVYTLPPSRDELTKNQVSLTCLVKGFYPSDIAVEWESNGQPEKNYKTTPPVLDSDGSFFLYSKLTVDKSRWQQGNVFSCSVMHEALHYHYTQKSLSLSPGK
notes: as for B3
